Results on four molecules are retold here after PMC11077072.

Data set [1] deals with T1, LbCas12a (Cas12a, NEB M0653T) (Lachnospiraceae bacterium, UniProt A0A5S8WF58 1-1228). Kind of data set: activation kinetics.
The target in data set [2] is T1, LbCas12a (Cas12a, NEB M0653T). Kind of data set: activation kinetics. This is another data set of the same source.

Like-named read-outs stand apart in the source and are kept apart here.

B1: crRNA-A2 + A2 ssDNA target (mixed)
RNA: UAAUUUCUACUAAGUGUAGAUCAUGCCAAUGCGCGACAUUC
DNA: TTCTTCGGAATGTCGCGCATTGGCATGGAAGTCACACCTT
With B1, the Kd in data set [1] came out at 1.1 ± 0.4 nM.

B2: crRNA-A2 + A2 ssDNA-t target (mixed)
RNA: UAAUUUCUACUAAGUGUAGAUCAUGCCAAUGCGCGACAUUC
DNA: TCGGAATGTCGCGCATTGGCATGGAAGTCACACCTT
In the case of B2, the Kd in data set [1] came to 1.4 ± 0.7 nM.

B3: crRNA-A19 + A19 ssDNA target (mixed)
RNA: UAAUUUCUACUAAGUGUAGAUGACAUUUUGCUCUCAAGCUG
DNA: ATTGAACCAGCTTGAGAGCAAAATGTCTGGTAAAGGCCAA
In data set [2], B3 gave a Kd of 0.36 ± 0.26 nM.

B4: crRNA-A19 + A19 ssDNA-t target (mixed)
RNA: UAAUUUCUACUAAGUGUAGAUGACAUUUUGCUCUCAAGCUG
DNA: AACCAGCTTGAGAGCAAAATGTCTGGTAAAGGCCAA
In data set [2], B4 displayed a Kd of 0.3 ± 0.25 nM.

For orientation: Kd means the equilibrium constant for the complex coming apart. A low value points to tighter binding.
